Assays:
[1] = molecular target: T1, cardiac troponin I (cTnI) (UniProt P19429 2-210); experiment: sandwich SERRS lateral-flow assay; capture aptamer on test line; N2 on AuNP as detector; assay LOD 0.016 ng/ml; running buffer PBS with 0.25% Tween; sample pad pretreated with 0.05 M Tris pH 7.6, 0.15 M NaCl, 0.25% Triton X-100; assay temperature not stated; settings: protein: commercial
[2] = molecular target: T1, cardiac troponin I (cTnI); experiment: sandwich SERRS lateral-flow assay; detector aptamer on AuNP; N1 on test line as capture; assay LOD 0.016 ng/ml; running buffer PBS with 0.25% Tween; sample pad pretreated with 0.05 M Tris pH 7.6, 0.15 M NaCl, 0.25% Triton X-100; assay temperature not stated; settings: protein: commercial

T1 sequence (P19429 2-210): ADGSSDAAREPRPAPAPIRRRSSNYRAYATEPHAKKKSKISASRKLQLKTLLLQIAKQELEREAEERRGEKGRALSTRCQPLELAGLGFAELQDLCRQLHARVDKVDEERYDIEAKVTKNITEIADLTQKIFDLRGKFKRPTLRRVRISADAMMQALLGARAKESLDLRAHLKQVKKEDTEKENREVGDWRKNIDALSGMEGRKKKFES

Q: Does TTTTTTCGTGCAGTACGCCAACCTTTCTCATGCGCTGCCCCTCTTA (ssDNA, 5'-biotin) [primary cTnI aptamer] bind [1]?
A: binds

Q: Does CGCATGCCAAACGTTGCCTCATAGTTCCCTCCCCGTGTCC (ssDNA, 5'-amine-spacer 18-spacer 18) [secondary cTnI aptamer] bind [2]?
A: binds
